Reference: US20230212549A1 (3B PHARMACEUTICALS, published 2023)
“And” between values parts separate entries of the source, which are not always exact repeats. Equal values may be shown once. Numbered stars: 1 amine (or outer) side, 2 acyl side, 3 side chain; on linkers, the order of the positions; unused ones are H or OH. Bridge positions count the residues as written; N and C are the ends. Square brackets hold non-standard residues; d marks the D form. Primed or numbered codes have the meaning given here. * marks the point of attachment. tMeBn(LuDOTA-AET) = 1,3,5-trimethylbenzylidene (from 1,3,5-tris(bromomethyl)benzene) bridge with two thioethers to the Cys, its third CH2 carries AET (2-aminoethanethiol, attached through S), whose amine is acylated by DOTA complexing lutet, O=C([O-])CN1CCN(CC(=O)[O-])CCN(CC(=O)NCCSCc2cc(C[*:1])cc(C[*:2])c2)CCN(CC(=O)[O-])CC1.[Lu+3]; tMeBn(DOTA-PP) = 1,3,5-trimethylbenzylidene, two thioethers to Cys, third CH2 bound to one N of piperazine whose other N bears DOTA, O=C(O)CN1CCN(CC(=O)O)CCN(CC(=O)N2CCN(Cc3cc(C[*:1])cc(C[*:2])c3)CC2)CCN(CC(=O)O)CC1; Ttds″ = 1,13-diamino-4,7,10-trioxatridecan-succinamic acid spacer, O=C(CCC(=O)[*:2])NCCCOCCOCCOCCCN[*:1]; TBMB(SCH2CH2NH-DOTA) = O=C(O)CN1CCN(CC(=O)O)CCN(CC(=O)NCCSCc2cc(C[*:1])cc(C[*:2])c2)CCN(CC(=O)O)CC1; Ttds = 1,13-diamino-4,7,10-trioxatridecan-succinamic acid, O=C(CCC(=O)[*:2])NCCCOCCOCCOCCCN[*:1]; 3MeBn = 3-Methylbenzylidene (m-xylylene thioether bridge from α,α′-dibromo-m-xylene); N4Ac = 6-Carboxy-1,4,8,11-tetraazaundecane, an N4-chelator, NCCNCC(CNCCN)C(=O)*; DOTA = O=C(O)CN1CCN(CC(=O)O)CCN(CC(=O)*)CCN(CC(=O)O)CC1; nBu‑CAyl = n-butylaminocarbonyl, CCCCNC(=O)*; mXylylene = c1cc(C[*:1])cc(C[*:2])c1; NMeF = CN[C@@H](Cc1ccccc1)C(=O)O; AF488 = Alexa Fluor 488 label; Nle = CCCC[C@H](N)C(=O)O; Hexanoyl = CCCCCC(=O)*; AEEA = NCCOCCOCC(=O)O; Ahx = NCCCCCC(=O)O; GABA = NCCCC(=O)O; Sar = CNCC(=O)O

What was measured:
[1] = target: T1, Recombinant human FAP (R&D systems, #3715-SE) (human, UniProt Q12884 26-760); test: cell-based or functional assay
[2] = target: T2, human fibroblast activation protein (FAP) on WI-38 fibroblasts (human, UniProt Q12884 1-760); test: competitive FACS, WI-38 cells, Cy5-labeled peptide as competitor
T2 construct: FAP-expressing human WI-38 fibroblasts (ECACC)

[3] = target: T1, Recombinant human FAP (R&D systems, …); test: SPR (Biacore T200), FAP captured on anti-FAP antibody, single cycle kinetics
[4] = target: Recombinant human FAP (R&D systems, #3715-SE) (human, UniProt Q12884 26-760); test: cell-based or functional assay; remark: listed apart in the source
[5] = target: T3, fibroblast activation protein (FAP) on FAP-expressing human WI-38 fibroblasts (human, UniProt Q12884 1-760); test: competitive FACS, WI-38 cells, vs Cy5 tracer m3; C = pIC50 6.1-7.0
T3 construct: also called human FAP

| pIC50 Category (Activity) [1] | pIC50 Category (FACS) [2] | pKD Category [3] | pIC50 Category (Activity) [4] | pIC50 Category (FACS) [5] | Binder |
| --- | --- | --- | --- | --- | --- |
| – | > 8 pIC50 | > 8 pKD | – | – | Hexanoyl-CPPTEFC-OH (linker 1-7 via TBMB(SCH2CH2NH-DOTA); SMILES CCCCCC(=O)N[C@H]1CSCc2cc(CSCCNC(=O)CN3CCN(CC(=O)O)CCN(CC(=O)O)CCN(CC(=O)O)CC3)cc(c2)CSC[C@@H](C(=O)O)NC(=O)[C@H](Cc2ccccc2)NC(=O)[C@H](CCC(=O)O)NC(=O)[C@H]([C@@H](C)O)NC(=O)[C@@H]2CCCN2C(=O)[C@@H]2CCCN2C1=O, also called 3BP-4250) [Hex-[Cys-(tMeBn(DOTA-AET))-Pro-Pro-Thr-Glu-Phe-Cys]-OH] |
| – | ≤ 6 pIC50 | – | – | – | N4Ac-[AEEA][Nle]CPPTEFC-OH (linker 3-9 via 3MeBn, also called 3BP-4228) [N4Ac-O2Oc-Nle-[Cys-(3MeBn)-Pro-Pro-Thr-Glu-Phe-Cys]-OH] |
| > 8 pIC50 | > 8 pIC50 | – | – | – | Hexanoyl-CPPTQFCD-NH2 (linker 1-7 via tMeBn(H-O2Oc-AET), also called 3BP-4003) [Hex-[Cys-(tMeBn(H-O2Oc-AET))-Pro-Pro-Thr-Gln-Phe-Cys]-Asp-NH2] |
| > 8 pIC50 | > 8 pIC50 | – | – | – | Hexanoyl-CPPTQFCD-NH2 (linker 1-7 via tMeBn(H-O2Oc-PP), also called 3BP-3967) [Hex-[Cys-(tMeBn(H-O2Oc-PP))-Pro-Pro-Thr-Gln-Phe-Cys]-Asp-NH2] |
| > 8 pIC50 | > 8 pIC50 | – | – | – | H-[Ahx][Ttds][Nle]CPPTQFCD-NH2 (linker 4-10 via mXylylene; SMILES CCCC[C@H](NC(=O)CCC(=O)NCCCOCCOCCOCCCNC(=O)CCCCCN)C(=O)N[C@H]1CSCc2cccc(c2)CSC[C@@H](C(=O)N[C@@H](CC(=O)O)C(N)=O)NC(=O)[C@H](Cc2ccccc2)NC(=O)[C@H](CCC(N)=O)NC(=O)[C@H]([C@@H](C)O)NC(=O)[C@@H]2CCCN2C(=O)[C@@H]2CCCN2C1=O, also called 3BP-3980) [H-Ahx-Ttds-Nle-[Cys-(3MeBn)-Pro-Pro-Thr-Gln-Phe-Cys]-Asp-NH2] |

Continued, binder first:

| Binder | pIC50 Category (Activity) [1] | pIC50 Category (FACS) [2] | pKD Category [3] | pIC50 Category (Activity) [4] | pIC50 Category (FACS) [5] |
| --- | --- | --- | --- | --- | --- |
| Hexanoyl-C[Sar]PTQFC-NH2 (linker 1-7 via TBMB(SCH2CH2NH-DOTA); SMILES CCCCCC(=O)N[C@H]1CSCc2cc(CSCCNC(=O)CN3CCN(CC(=O)O)CCN(CC(=O)O)CCN(CC(=O)O)CC3)cc(c2)CSC[C@@H](C(N)=O)NC(=O)[C@H](Cc2ccccc2)NC(=O)[C@H](CCC(N)=O)NC(=O)[C@H]([C@@H](C)O)NC(=O)[C@@H]2CCCN2C(=O)CN(C)C1=O, also called 3BP-3744) [Hex-[Cys(tMeBn(DOTA-AET))-Nmg-Pro-Thr-Gln-Phe-Cys]-NH2] | > 8 pIC50 | > 8 pIC50 | – | – | – |
| Hexanoyl-CPPTQFCD[Ttds″]K(DOTA)-NH2 (linker 1-7 via TBMB(SCH2CH2NH-DOTA); not fully specified (residue 1); printed as Hex-[Cys(tMeBn(DOTA-AET))-Pro-Pro-Thr-Gln-Phe-Cys]-Asp-Ttds-Lys(DOTA)-NH2, also called 3BP-4391) [Hex-[Cys(tMeBn(DOTA-AET))-Pro-Pro-Thr-Gln-Phe-Cys]-Asp-Ttds-Lys(DOTA)-NH2] | > 8 pIC50 | > 8 pIC50 | – | – | – |
| Hexanoyl-CPPAAFCD-NH2 (linker 1-7 via tMeBn(DOTA-PP); SMILES CCCCCC(=O)N[C@H]1CSCc2cc(cc(CN3CCN(C(=O)CN4CCN(CC(=O)O)CCN(CC(=O)O)CCN(CC(=O)O)CC4)CC3)c2)CSC[C@@H](C(=O)N[C@@H](CC(=O)O)C(N)=O)NC(=O)[C@H](Cc2ccccc2)NC(=O)[C@H](C)NC(=O)[C@H](C)NC(=O)[C@@H]2CCCN2C(=O)[C@@H]2CCCN2C1=O, also called 3BP-3746) [Hex-[Cys(tMeBn(DOTA-PP))-Pro-Pro-Ala-Ala-Phe-Cys]-Asp-NH2] | – | ≤ 6 pIC50 | – | – | – |
| {nBu‑CAyl}-C[Sar]PTQFC-OH (linker 1-7 via TBMB(SCH2CH2NH-DOTA); SMILES CCCCNC(=O)N[C@H]1CSCc2cc(CSCCNC(=O)CN3CCN(CC(=O)O)CCN(CC(=O)O)CCN(CC(=O)O)CC3)cc(c2)CSC[C@@H](C(=O)O)NC(=O)[C@H](Cc2ccccc2)NC(=O)[C@H](CCC(N)=O)NC(=O)[C@H]([C@@H](C)O)NC(=O)[C@@H]2CCCN2C(=O)CN(C)C1=O, also called 3BP-4607) [nBu-CAyl-[Cys(tMeBn(DOTA-AET))-Nmg-Pro-Thr-Gln-Phe-Cys]-OH] | > 8 pIC50 | > 8 pIC50 | – | – | – |
| Hexanoyl-C[Sar]PTQFC-OH (bridge 1-7; not fully specified (residue 1, bridges); printed as Hex-[Cys(tMeBn(DOTA-PP))-Nmg-Pro-Thr-Gln-Phe-Cys]-OH, also called 3BP-3771) [Hex-[Cys(tMeBn(DOTA-PP))-Nmg-Pro-Thr-Gln-Phe-Cys]-OH] | > 8 pIC50 | > 8 pIC50 | – | – | – |
| Hexanoyl-CPPTQFCD[GABA]R[Ttds″]K(AF488)-NH2 (linker 1-7 via tMeBn(LuDOTA-AET); not fully specified (residue 1); printed as Hex-[Cys(tMeBn(LuDOTA-AET))-Pro-Pro-Thr-Gln-Phe-Cys]-Asp-Gab-Arg-Ttds-Lys(AF488)-NH2; also: DOTA complexing lutetium, also called 3BP-4372) [Hex-[Cys(tMeBn(LuDOTA-AET))-Pro-Pro-Thr-Gln-Phe-Cys]-Asp-Gab-Arg-Ttds-Lys(AF488)-NH2] | > 8 pIC50 | > 8 pIC50 | – | – | – |
| {DOTA}-[Ahx]CPPTEFCDH[NMeF]RD-NH2 (linker 2-8 via mXylylene; SMILES C[C@@H](O)[C@@H]1NC(=O)[C@@H]2CCCN2C(=O)[C@@H]2CCCN2C(=O)[C@@H](NC(=O)CCCCCNC(=O)CN2CCN(CC(=O)O)CCN(CC(=O)O)CCN(CC(=O)O)CC2)CSCc2cccc(c2)CSC[C@@H](C(=O)N[C@@H](CC(=O)O)C(=O)N[C@@H](Cc2c[nH]cn2)C(=O)N(C)[C@@H](Cc2ccccc2)C(=O)N[C@@H](CCCNC(=N)N)C(=O)N[C@@H](CC(=O)O)C(N)=O)NC(=O)[C@H](Cc2ccccc2)NC(=O)[C@H](CCC(=O)O)NC1=O, also called 3BP-3266) [DOTA-Ahx-[Cys(3MeBn)-Pro-Pro-Thr-Glu-Phe-Cys]-Asp-His-Nmf-Arg-Asp-NH2] | – | – | – | 6.1 pIC50 and 7 pIC50 | 6.1 pIC50 and 7 pIC50 |
| {DOTA}-[Ttds][Nle]CPPTQFCD[Ttds]K(DOTA)-NH2 (linker 3-9 via mXylylene; SMILES CCCC[C@H](NC(=O)CCC(=O)NCCCOCCOCCOCCCNC(=O)CN1CCN(CC(=O)O)CCN(CC(=O)O)CCN(CC(=O)O)CC1)C(=O)N[C@H]1CSCc2cccc(c2)CSC[C@@H](C(=O)N[C@@H](CC(=O)O)C(=O)NCCCOCCOCCOCCCNC(=O)CCC(=O)N[C@@H](CCCCNC(=O)CN2CCN(CC(=O)O)CCN(CC(=O)O)CCN(CC(=O)O)CC2)C(N)=O)NC(=O)[C@H](Cc2ccccc2)NC(=O)[C@H](CCC(N)=O)NC(=O)[C@H]([C@@H](C)O)NC(=O)[C@@H]2CCCN2C(=O)[C@@H]2CCCN2C1=O, also called 3BP-4393) [DOTA-Ttds-Nle-[Cys(3MeBn)-Pro-Pro-Thr-Gln-Phe-Cys]-Asp-Ttds-Lys(DOTA)-NH2] | > 8 pIC50 | > 8 pIC50 | – | – | – |
| {DOTA}-[AEEA]CPPTEFCDH[NMeF]RD-NH2 (linker 2-8 via mXylylene; SMILES C[C@@H](O)[C@@H]1NC(=O)[C@@H]2CCCN2C(=O)[C@@H]2CCCN2C(=O)[C@@H](NC(=O)COCCOCCNC(=O)CN2CCN(CC(=O)O)CCN(CC(=O)O)CCN(CC(=O)O)CC2)CSCc2cccc(c2)CSC[C@@H](C(=O)N[C@@H](CC(=O)O)C(=O)N[C@@H](Cc2c[nH]cn2)C(=O)N(C)[C@@H](Cc2ccccc2)C(=O)N[C@@H](CCCNC(=N)N)C(=O)N[C@@H](CC(=O)O)C(N)=O)NC(=O)[C@H](Cc2ccccc2)NC(=O)[C@H](CCC(=O)O)NC1=O, also called 3BP-3267) [DOTA-O2Oc-[Cys(3MeBn)-Pro-Pro-Thr-Glu-Phe-Cys]-Asp-His-Nmf-Arg-Asp-NH2] | – | – | – | 6.1 pIC50 and 7 pIC50 | 6.1 pIC50 and 7 pIC50 |
